The values below are quoted from earlier work in article PMC9960319.

The target in the data set is intermediate-affinity IL-2 receptor (Homo sapiens) (UniProt P14784).
Sequence of UniProt P14784 (P14784 27-240, chain 1 of 2): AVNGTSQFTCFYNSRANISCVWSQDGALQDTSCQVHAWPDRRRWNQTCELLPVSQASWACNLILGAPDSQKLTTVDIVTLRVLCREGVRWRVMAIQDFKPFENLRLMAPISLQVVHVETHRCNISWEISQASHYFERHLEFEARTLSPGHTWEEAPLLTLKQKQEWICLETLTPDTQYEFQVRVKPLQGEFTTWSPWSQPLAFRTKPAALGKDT
Sequence of UniProt P14784 (P31785 23-262, chain 2 of 2, further chain): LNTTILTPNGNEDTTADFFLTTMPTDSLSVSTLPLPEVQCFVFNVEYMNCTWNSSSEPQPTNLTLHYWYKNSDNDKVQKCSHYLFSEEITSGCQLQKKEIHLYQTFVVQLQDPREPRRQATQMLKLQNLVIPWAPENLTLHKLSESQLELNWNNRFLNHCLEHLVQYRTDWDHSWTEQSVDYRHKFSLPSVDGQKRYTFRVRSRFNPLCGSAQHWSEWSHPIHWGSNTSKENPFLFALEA

Usually Kd stands for a measure of binding affinity in units of concentration. Regarding IL-2 moiety (from UniProt P60568), the dissociation constant (Kd) is 40 nM.
